The source of these data is patent US20240002497A1 (Merck Sharp & Dohme, published 2024).

As a reminder, the EC50 is the concentration needed to bring the measured effect to its halfway point.

What all share (test): binding FACS, CHO FlpIn cells
The target of one test is T1, huNav1.7α + β1-β2-β3 (human, UniProt Q15858 1-1988; A5A6L6 19-218; O60939 30-215; Q2KI11 23-215).
T1 construct: Cell line (CHO FlpIn, HEK FlpIn, transient HEK293T) is named under assay; also called huNav1.7-beta1-beta2-beta3; human Nav1.7α with Navβ1, Navβ2 and Navβ3
The method, then: (§1) Binding of the ISVDs to cell-expressed Nav1.7α was detected via murine anti-Flag (Sigma, catalog #F1804). Briefly, cells were resuspended in FACS buffer (PBS, 10% FBS, NaN₃) and transferred to a 96-well V-bottom plate at 1×10^5 cells/well. Purified FLAG3-tagged ISVD was diluted in FACS buffer and added to the cells for 30 minutes at 4° C. […] Prior to the read-out, the samples were resuspended in 1 μg/mL propidium iodide (Sigma, catalog #P4170) to exclude dead cells. Between each step, the cells were centrifuged for 5 minutes at 200 grams and washed with 100 μL/well FACS buffer.

Another test addresses T2, rhNav1.7α + β1-β2-β3 (rhesus monkey).
T2 construct: also called rhNav1.7-beta1-beta2-beta3; rhesus Nav1.7α
Here is the method:
as §1

Test [1] concerns the target T3, huNav1.7α + β1-β2-β3 (human Nav1.7α co-expressed with human Navβ1, Navβ2 and Navβ3 on cells) (human).
T3 construct: also called huNav1.7-beta1-beta2-beta3; CHO FlpIn huNav1.7α + β1-β2-β3
Here is the method:
as §1

B1: F010302348 (VHH)
VHH: EVQLVESGGGVVQPGGSLRLSCAASHRAFIRDLFTGWYRQAPGKQRELVARIYESGNTNYADSAKGRFTISRDNAKKTVYLQMNSLRPEDTALYYCLFSGTISTGREYRSGDYWGQGTLVTVSS
For the molecule B1, in the test with huNav1.7α + β1-β2-β3, the Bmax was 100% and the 50% effective concentration (EC50) stood at 6.7 nM. In the test with rhNav1.7α + β1-β2-β3, the Bmax is 95% and the EC50 is 14 nM.

B2: F010302362 (VHH)
VHH: EVQLVESGGGVVQPGGSLRLSCAASHRAFIRDVFTGWYRQAPGKQRELVARIYESGNTQYADSVKGRFTISRDNAKKTVYLQMNSLRPEDTALYYCLFSGTISTGREYRSGDYWGQGTLVTVSS
With B2, in the test with huNav1.7α + β1-β2-β3, the Bmax came out at 100% and the EC50 amounted to 5.4 nM. Also, in the test with rhNav1.7α + β1-β2-β3, the Bmax is 89% and the EC50 came to 14 nM.

B3: F010302368 (VHH)
VHH: EVQLVESGGGVVQPGGSLRLSCAASSRAFIRDVFTGWYRQAPGKQRELVARIYNGGNTNYADSVKGRFTISRDNAKKTVYLQMNSLRPEDTALYYCLFSGTISTGREYRSGDYWGQGTLVTVSS
In the case of B3, in the test with huNav1.7α + β1-β2-β3, the Bmax was 100% and the EC50 was determined as 3.9 nM. Also, the binding result with rhNav1.7α + β1-β2-β3 is reported as “no binding”.

B4: F010302364 (VHH)
VHH: EVQLVESGGGVVQPGGSLRLSCAASHRAFIRDLFTGWYRQAPGKQRELVARIYESGNTNYADSVKGRFTISRDNAKKTVYLQMNSLRPEDTALYYCLFSGTISTGREYRSGDYWGQGTLVTVSS
Take B4: the figures for the Bmax with huNav1.7α + β1-β2-β3 and with rhNav1.7α + β1-β2-β3 were 100% and 74%, respectively. Besides, the values for the EC50 with huNav1.7α + β1-β2-β3 and with rhNav1.7α + β1-β2-β3 were 7.2 nM and 17 nM, respectively.

B5: F010302360 (VHH)
VHH: EVQLVESGGGVVQPGGSLRLSCAASHRQFIRDVFTGWYRQAPGKQRELVARIYNEGNTQYADSVKGRFTISRDNAKKTVYLQMNSLRPEDTALYYCLFSGTISTGREYRSGDYWGQGTLVTVSS
As to B5, in the test with huNav1.7α + β1-β2-β3, the Bmax was found to be 100% and the EC50 turned out to be 3.5 nM. In addition, in the test with rhNav1.7α + β1-β2-β3, the Bmax came to 58% and the EC50 is 15 nM.

B6: F010302363 (VHH)
VHH: EVQLVESGGGVVQPGGSLRLSCAASHRAFIRDVFTGWYRQAPGKQRELVARIYEGGNTQYADSVKGRFTISRDNAKKTVYLQMNSLRPEDTALYYCLFSGTISTGREYRSGDYWGQGTLVTVSS
Consider B6, for which, in the test with huNav1.7α + β1-β2-β3, the Bmax is 100% and the concentration giving a half-maximal response (EC50) is 4.2 nM. In the test with rhNav1.7α + β1-β2-β3, the Bmax worked out at 96% and the EC50 is 9.3 nM.

B7: F010302361 (VHH)
VHH: EVQLVESGGGVVQPGGSLRLSCAASHRQFIRDVFTGWYRQAPGKQRELVARIYEGGNTQYADSVKGRFTISRDNAKKTVYLQMNSLRPEDTALYYCLFSGTISTGREYRSGDYWGQGTLVTVSS
As to B7, in the test with huNav1.7α + β1-β2-β3, the Bmax is 100% and the EC50 stood at 4.8 nM. In the test with rhNav1.7α + β1-β2-β3, the Bmax was determined as 92% and the concentration giving a half-maximal response (EC50) is 11 nM.

B8: F010302365 (VHH)
VHH: EVQLVESGGGVVQPGGSLRLSCAASSRAFIRDVFTGWYRRAPGKQRELVARIYNGGNTNYADSAKGRFTISRDNAKKTVYLQMNSLRPEDTALYYCLFSGTISTGREYRSGDYWGQGTLVTVSS
Take B8: in the test with huNav1.7α + β1-β2-β3, the Bmax worked out at 100% and the EC50 stood at 3.1 nM. Moreover, in the test with rhNav1.7α + β1-β2-β3, the binding result is “no binding”.

B9: F010302353 (VHH)
VHH: EVQLVESGGGVVQPGGSLRLSCAASHRQFIRDVFTGWYRRAPGKQRELVARIYEGGNTQYADSVKGRFTISRDNAKKTVYLQMNSLRPEDTALYYCLFSGTISTGREYRSGDYWGQGTLVTVSS
With B9, the Bmax with huNav1.7α + β1-β2-β3 stood at 100%; with rhNav1.7α + β1-β2-β3 it was 93%. The EC50 is 4.2 nM with huNav1.7α + β1-β2-β3 and 7.9 nM with rhNav1.7α + β1-β2-β3.

B10: F010302352 (VHH)
VHH: EVQLVESGGGVVQPGGSLRLSCAASHRQFIRDVFTGWYRRAPGKQRELVARIYNEGNTQYADSVKGRFTISRDNAKKTVYLQMNSLRPEDTALYYCLFSGTISTGREYRSGDYWGQGTLVTVSS
In the case of B10, the values for the Bmax with huNav1.7α + β1-β2-β3 and with rhNav1.7α + β1-β2-β3 were 100% and 60%, respectively. Moreover, the EC50 was found to be 3.6 nM with huNav1.7α + β1-β2-β3 and 11 nM with rhNav1.7α + β1-β2-β3.

B11: F010302358 (VHH)
VHH: EVQLVESGGGVVQPGGSLRLSCAASSRQFIRDVFTGWYRQAPGKQRELVARIYNEGNTQYADSVKGRFTISRDNAKKTVYLQMNSLRPEDTALYYCLFSGTISTGREYRSGDYWGQGTLVTVSS
With B11, the Bmax with huNav1.7α + β1-β2-β3 was 100%; with rhNav1.7α + β1-β2-β3, 37%. Further, the EC50 with huNav1.7α + β1-β2-β3 came to 4.5 nM; in the test with rhNav1.7α + β1-β2-β3 it was 37 nM.

B12: F010302366 (VHH)
VHH: EVQLVESGGGVVQPGGSLRLSCAASSRAFIRDVFTGWYRQAPGKQRELVARIYNGGNTNYADSAKGRFTISRDNAKKTVYLQMNSLRPEDTALYYCLFSGTISTGREYRSGDYWGQGTLVTVSS
Take B12: in the test with huNav1.7α + β1-β2-β3, the Bmax came out at 100% and the EC50 came out at 3.7 nM. In the test with rhNav1.7α + β1-β2-β3, the binding result is recorded as “no binding”.

B13: F010302351 (VHH)
VHH: EVQLVESGGGVVQPGGSLRLSCAASSRQFIRDVFTGWYRRAPGKQRELVARIYESGNTQYADSVKGRFTISRDNAKKTVYLQMNSLRPEDTALYYCLFSGTISTGREYRSGDYWGQGTLVTVSS
On to B13, for which the Bmax is 100% with huNav1.7α + β1-β2-β3 and 72% with rhNav1.7α + β1-β2-β3. In addition, the EC50 turned out to be 5.6 nM with huNav1.7α + β1-β2-β3 and 15 nM with rhNav1.7α + β1-β2-β3.

B14: F010302355 (VHH)
VHH: EVQLVESGGGVVQPGGSLRLSCAASHRAFIRDVFTGWYRRAPGKQRELVARIYEGGNTQYADSVKGRFTISRDNAKKTVYLQMNSLRPEDTALYYCLFSGTISTGREYRSGDYWGQGTLVTVSS
As for B14, in the test with huNav1.7α + β1-β2-β3, the Bmax was 100% and the EC50 was 3.5 nM. Besides, in the test with rhNav1.7α + β1-β2-β3, the Bmax is 97% and the concentration giving a half-maximal response (EC50) was found to be 6.8 nM.

B15: F010302359 (VHH)
VHH: EVQLVESGGGVVQPGGSLRLSCAASSRQFIRDVFTGWYRQAPGKQRELVARIYESGNTQYADSVKGRFTISRDNAKKTVYLQMNSLRPEDTALYYCLFSGTISTGREYRSGDYWGQGTLVTVSS
For B15, in the test with huNav1.7α + β1-β2-β3, the Bmax came out at 100% and the EC50 worked out at 6.4 nM. For the same molecule, in the test with rhNav1.7α + β1-β2-β3, the Bmax was 66% and the EC50 was found to be 24 nM.

B16: F010302354 (VHH)
VHH: EVQLVESGGGVVQPGGSLRLSCAASHRAFIRDVFTGWYRRAPGKQRELVARIYESGNTQYADSVKGRFTISRDNAKKTVYLQMNSLRPEDTALYYCLFSGTISTGREYRSGDYWGQGTLVTVSS
Consider B16, for which the Bmax was 100% with huNav1.7α + β1-β2-β3 and 96% with rhNav1.7α + β1-β2-β3. Besides, the EC50 with huNav1.7α + β1-β2-β3 turned out to be 4.2 nM; with rhNav1.7α + β1-β2-β3, 7.9 nM.

B17: F010302357 (VHH)
VHH: EVQLVESGGGVVQPGGSLRLSCAASSRQFIRDVFTGWYRQAPGKQRELVARIYNEGNTNYADSVKGRFTISRDNAKKTVYLQMNSLRPEDTALYYCLFSGTISTGREYRSGDYWGQGTLVTVSS
On to B17, for which, in the test with huNav1.7α + β1-β2-β3, the Bmax was 100% and the EC50 was 5.3 nM. Besides, the binding result in the test with rhNav1.7α + β1-β2-β3 was “no binding”.

B18: F010302350 (VHH)
VHH: EVQLVESGGGVVQPGGSLRLSCAASSRQFIRDVFTGWYRRAPGKQRELVARIYNEGNTQYADSVKGRFTISRDNAKKTVYLQMNSLRPEDTALYYCLFSGTISTGREYRSGDYWGQGTLVTVSS
With B18, in the test with huNav1.7α + β1-β2-β3, the Bmax is 100% and the EC50 stood at 3.5 nM. Moreover, in the test with rhNav1.7α + β1-β2-β3, the Bmax stood at 46% and the EC50 is 15 nM.

B19: F010302356 (VHH)
VHH: EVQLVESGGGVVQPGGSLRLSCAASHRAFIRDLFTGWYRRAPGKQRELVARIYESGNTNYADSVKGRFTISRDNAKKTVYLQMNSLRPEDTALYYCLFSGTISTGREYRSGDYWGQGTLVTVSS
As to B19, in the test with huNav1.7α + β1-β2-β3, the Bmax worked out at 100% and the EC50 came out at 5.3 nM. Besides, in the test with rhNav1.7α + β1-β2-β3, the Bmax turned out to be 81% and the EC50 was determined as 12 nM.

B20: F010302316 (VHH)
VHH: EVQLVESGGGVVQPGGSLRLSCAASGPVFNINRMAWYRQAPGKQRELVAYVTPTGDISYADSVKGRFTISRDASKRVYLQMNSLRPEDTALYYCRALLQPRSYSITRTYWGQGTLVTVSS
notes: also called F0103387G04(L11V, A12V, K33R, R39Q, S50Y, S56D, T60A, G73A, W78V, S79Y, T83R, V89L, N93R, D99R, N100cI)-FLAG3-HIS6
With B20, in test [1], the Bmax is 91% and the EC50 turned out to be 8.2 nM.

B21: F010302319 (VHH)
VHH: EVQLVESGGGVVQPGGSLRLSCAASGPVFNINRMAWYRQAPGKQRELVAYVTPTGDISYADSVKGRFTISRDASKRVYLQMNSLRPEDTALYYCRALLQPDRYSITRTYWGQGTLVTVSS
notes: also called F0103387G04(L11V, A12V, K33R, R39Q, S50Y, S56D, T60A, G73A, W78V, S79Y, T83R, V89L, N93R, S100R, N100cI)-FLAG3-HIS6
With B21, in test [1], the Bmax worked out at 88% and the EC50 was determined as 15 nM.

B22: F010302318 (VHH)
VHH: EVQLVESGGGVVQPGGSLRLSCAASGPVFNINRMAWYRQAPGKQRELVAYVTPTGDISYADSVKGRFTISRDGSKRVYLQMNSLRPEDTALYYCRALLQPDRYSITRTYWGQGTLVTVSS
notes: also called F0103387G04(L11V, A12V, K33R, R39Q, S50Y, S56D, T60A, W78V, S79Y, T83R, V89L, N93R, S100R, N100cI)
In the case of B22, in test [1], the Bmax is 89% and the EC50 came to 11 nM.
